{
  "source": "patent US20130052176",
  "about": "“APTAMER FOR NGF AND USE THEREOF” (SHIONOGI & CO., LTD, published 2013)",
  "binders": {"B1": {"name": "aptamer ID 26(1) (ssRNA)", "RNA": "GGGAGACUCGCCAGAGUUGAAAGAAACCCAAAUAAGUGUGCGCAC", "modifications": "2'-F pyrimidines; 2'-OMe purines except 2'-OH at 3,5,19-23,25; 5' idT and 3' idT"}, "B2": {"name": "aptamer ID 55 (ssRNA)", "RNA": "GGGAUAAAAAUAGAGUUUGAUAAACACCUGUAUUAAAACCC", "modifications": "5' cholesterol; 3' idT; 2'-F pyrimidines and a37,a38; 2'-OMe other purines except 2'-OH at 4,7,30"}, "B3": {"name": "aptamer ID 57(7) (mixed)", "mixed": "GGGAUAAAAAUAGAGTUUGATAAACACCUGUAUUAAAACCC", "modifications": "as ID 57 (5' cholesterol; 3' idT; dT16,dT21; 2'-F other pyrimidines and a37,a38; 2'-OMe purines except ribo a4,a7,g30) plus PS between 23 and 24"}, "B4": {"name": "aptamer ID 56 (mixed)", "mixed": "GGGAUAAAAAUAGAGUUUGATAAACACCUGUAUUAAAACCC", "modifications": "5' cholesterol; 3' idT; 2'-F pyrimidines (except dT at 21) and a37,a38; 2'-OMe other purines except 2'-OH at 4,7,30"}, "B5": {"name": "aptamer ID 57(6) (mixed)", "mixed": "GGGAUAAAAAUAGAGTUUGATAAACACCUGUAUUAAAACCC", "modifications": "as ID 57 (5' cholesterol; 3' idT; dT16,dT21; 2'-F other pyrimidines and a37,a38; 2'-OMe purines except ribo a4,a7,g30) plus PS between 22 and 23"}, "B6": {"name": "aptamer ID 63 (mixed)", "mixed": "GGGAUAAAAAUAGAGTUUGATAAACACCUGUAUUAAAACCC", "modifications": "5' cholesterol; 3' idT; 2'-F pyrimidines (except dT at 16,21); 2'-OMe other purines except 2'-OH at 4,7,30,37,38"}, "B7": {"name": "aptamer ID 62 (mixed)", "mixed": "GGGAUAAAAAUAGAGTUUGATAAACACCUGUAUUAAAACCC", "modifications": "5' cholesterol; 3' idT; 2'-F pyrimidines (except dT at 16,21) and a37; 2'-OMe other purines except 2'-OH at 4,7,30,38"}, "B8": {"name": "aptamer ID 61 (mixed)", "mixed": "GGGAUAAAAAUAGAGTUUGATAAACACCUGUAUUAAAACCC", "modifications": "5' cholesterol; 3' idT; 2'-F pyrimidines (except dT at 16,21) and a38; 2'-OMe other purines except 2'-OH at 4,7,30,37"}, "B9": {"name": "aptamer ID 60 (mixed)", "mixed": "GGGAUAAAAAUAGAGTUUGATAUACACCUGUAUUAAAACCC", "modifications": "5' cholesterol; 3' idT; 2'-F pyrimidines (except dT at 16,21) and a37,a38; 2'-OMe other purines except 2'-OH at 4,7,30"}, "B10": {"name": "aptamer ID 57(8) (mixed)", "mixed": "GGGAUAAAAAUAGAGTUUGATAAACACCUGUAUUAAAACCC", "modifications": "as ID 57 (5' cholesterol; 3' idT; dT16,dT21; 2'-F other pyrimidines and a37,a38; 2'-OMe purines except ribo a4,a7,g30) plus PS between 24 and 25"}, "B11": {"name": "aptamer ID 57 (mixed)", "mixed": "GGGAUAAAAAUAGAGTUUGATAAACACCUGUAUUAAAACCC", "modifications": "5' cholesterol; 3' idT; dT16,dT21; 2'-F other pyrimidines and a37,a38; 2'-OMe purines except ribo a4,a7,g30"}, "B12": {"name": "aptamer ID 57(2) (mixed)", "mixed": "GGGAUAAAAAUAGAGTUUGATAAACACCUGUAUUAAAACCC", "modifications": "as ID 57 (5' cholesterol; 3' idT; dT16,dT21; 2'-F other pyrimidines and a37,a38; 2'-OMe purines except ribo a4,a7,g30) plus PS between 16 and 17"}, "B13": {"name": "aptamer ID 48 (ssRNA)", "RNA": "GGGAGAACUUCGACCAGAGUCGAUAACGAACAAAACUCCCAAAUAUGUGCGCAUAC", "modifications": "2'-F all pyrimidines"}},
  "key": {"[1]": {"molecular_target": "T1, NGF (nerve growth factor) (human, UniProt P01138 P01138:122-241)", "T1 sequence (P01138 122-241, one chain of several)": "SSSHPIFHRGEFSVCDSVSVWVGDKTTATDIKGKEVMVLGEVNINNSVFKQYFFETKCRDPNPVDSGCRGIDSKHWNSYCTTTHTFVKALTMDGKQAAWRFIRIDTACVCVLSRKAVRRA", "assay": "cell_activity; neurite outgrowth, NGF 0.38 nM; SPR binding; TF-1 IC50 0.058 nM", "details": "tags: amine-coupled to CM5 chip in SPR; soluble in cell assays; chain copies: 2"}, "[2]": {"molecular_target": "T1, NGF (nerve growth factor)", "assay": "cell_activity; neurite outgrowth, NGF 1.1 nM; SPR binding; TF-1 IC50 6.8 nM", "details": "tags: amine-coupled to CM5 chip in SPR; soluble in cell assays; chain copies: 2", "protocol": "(§1) The neurite outgrowth inhibitory activity of the aptamer obtained in Example 1 was evaluated by using Neuroscreen-1 cell, which is a subclone of PC-12 cells.\n(§2) The cells (2500 cells per well) were cultured for one day in an RPMI-1640 medium containing 2.5% horse serum and 1.25% fetal bovine serum in a 96 well flat-bottom plate coated with collagen type IV. […] Two days later, the cytoplasm and nuclei were stained using Cellomics Neurite Outgrowth Kit (manufactured by Thermo Scientific), and neurite length per cell was measured by Cellomics ArrayScan VTI (manufactured by Thermo Scientific). With the neurite length per cell obtained by the addition of NGF alone as inhibitory activity 0%, and that of the cell obtained by NGF free culture for 2 days as inhibitory activity 100%, the inhibitory activity of the aptamer was calculated from the neurite length per cell obtained by culturing with the addition of NGF and the aptamer in mixture. When the inhibitory activity was 0% or below, ‘0%’ is indicated."}, "[3]": {"molecular_target": "T1, NGF (nerve growth factor)", "assay": "cell_activity; neurite outgrowth, NGF 0.38 nM; SPR binding; TF-1 IC50 0.1 nM", "details": "tags: amine-coupled to CM5 chip in SPR; soluble in cell assays; chain copies: 2"}, "[4]": {"molecular_target": "T1, NGF (nerve growth factor)", "assay": "cell_activity; neurite outgrowth, NGF 1.1 nM; SPR binding; TF-1 IC50 2.4 nM", "details": "tags: amine-coupled to CM5 chip in SPR; soluble in cell assays; chain copies: 2", "protocol": "as §1, §2"}, "[5]": {"molecular_target": "T1, NGF (nerve growth factor)", "assay": "cell_activity; neurite outgrowth, NGF 1.1 nM; SPR binding; blocks NGF-TrkA; TF-1 IC50 8.0 nM", "details": "tags: amine-coupled to CM5 chip in SPR; soluble in cell assays; chain copies: 2", "protocol": "as §1, §2"}, "[6]": {"molecular_target": "T1, NGF (nerve growth factor)", "assay": "cell_activity; neurite outgrowth, NGF 1.1 nM; TF-1 IC50 5.3 nM", "details": "tags: human NGF; chain copies: 2", "protocol": "as §1, §2"}, "[7]": {"molecular_target": "T1, NGF (nerve growth factor)", "assay": "cell_activity; neurite outgrowth, NGF 1.1 nM; SPR binding; blocks NGF-TrkA and NGF-p75", "details": "tags: amine-coupled to CM5 chip in SPR; soluble in cell assays; chain copies: 2", "protocol": "as §1, §2"}, "[8]": {"molecular_target": "T1, NGF (nerve growth factor)", "assay": "cell_activity; neurite outgrowth, NGF 1.1 nM; SPR binding; blocks NGF-TrkA and NGF-p75; TF-1 IC50 2.1 nM", "details": "tags: amine-coupled to CM5 chip in SPR; soluble in cell assays; chain copies: 2", "protocol": "as §1, §2"}, "[9]": {"molecular_target": "T1, NGF (nerve growth factor)", "assay": "cell_activity; neurite outgrowth, NGF 1.1 nM; SPR binding; TF-1 IC50 6.3 nM", "details": "tags: amine-coupled to CM5 chip in SPR; soluble in cell assays; chain copies: 2", "protocol": "as §1, §2"}, "[10]": {"molecular_target": "T1, NGF (nerve growth factor)", "assay": "cell_activity; neurite outgrowth, NGF 1.1 nM; SPR binding; blocks NGF-TrkA and NGF-p75; TF-1 IC50 1.3 nM", "details": "tags: amine-coupled to CM5 chip in SPR; soluble in cell assays; chain copies: 2", "protocol": "as §1, §2"}, "[11]": {"molecular_target": "T1, NGF (nerve growth factor)", "assay": "cell_activity; neurite outgrowth, NGF 1.1 nM; SPR binding; TF-1 IC50 5.4 nM", "details": "tags: amine-coupled to CM5 chip in SPR; soluble in cell assays; chain copies: 2", "protocol": "as §1, §2"}, "[12]": {"molecular_target": "T1, NGF (nerve growth factor)", "assay": "cell_activity; neurite outgrowth, NGF 1.1 nM; TF-1 IC50 6.2 nM", "details": "tags: human NGF; chain copies: 2", "protocol": "as §1, §2"}, "[13]": {"molecular_target": "T1, NGF (nerve growth factor)", "assay": "cell_activity; neurite outgrowth, NGF 1.1 nM", "details": "tags: human NGF; chain copies: 2", "protocol": "as §1, §2"}},
  "data": [
    {"binder": "GGGAGACUCGCCAGAGUUGAAAGAAACCCAAAUAAGUGUGCGCAC (ssRNA, 2'-F pyrimidines; 2'-OMe purines except 2'-OH at 3,5,19-22; 5' idT and 3' idT)", "note": "[aptamer ID 26(11)]", "values": [
      {"measurement": "IC50", "setting": "[1]", "result": 0.087, "unit": "nM"}
    ]},
    {"binder": "GGGAGACUCGCCAGAGUUGAAAGAAACCCAAAUAAGUGUGCGCAC (ssRNA, 2'-F pyrimidines; 2'-OMe at 1,2,4,5,23-26; other purines 2'-OH)", "note": "[aptamer ID 26(4)]", "values": [
      {"measurement": "IC50", "setting": "[2]", "result": "< 1", "unit": "nM"}
    ]},
    {"binder": "B1", "values": [
      {"measurement": "IC50", "setting": "[3]", "result": 0.06, "unit": "nM"}
    ]},
    {"binder": "GGGAGACUCGCCAGAGUUGAAAGAAACCCAAAUAAGUGUGCGCAC (ssRNA, 2'-F pyrimidines; 2'-OMe at 21; other purines 2'-OH)", "note": "[aptamer ID 26(7)]", "values": [
      {"measurement": "IC50", "setting": "[4]", "result": "< 1", "unit": "nM"}
    ]},
    {"binder": "B2", "values": [
      {"measurement": "IC50", "setting": "[5]", "result": 9.8, "unit": "nM"}
    ]},
    {"binder": "B3", "values": [
      {"measurement": "IC50", "setting": "[6]", "result": "< 3", "unit": "nM"}
    ]},
    {"binder": "B4", "values": [
      {"measurement": "IC50", "setting": "[7]", "result": 4.1, "unit": "nM"}
    ]},
    {"binder": "B5", "values": [
      {"measurement": "IC50", "setting": "[6]", "result": "< 3", "unit": "nM"}
    ]},
    {"binder": "B6", "values": [
      {"measurement": "IC50", "setting": "[8]", "result": "< 3", "unit": "nM"}
    ]},
    {"binder": "B7", "values": [
      {"measurement": "IC50", "setting": "[9]", "result": 4.6, "unit": "nM"}
    ]},
    {"binder": "B8", "values": [
      {"measurement": "IC50", "setting": "[10]", "result": "< 3", "unit": "nM"}
    ]},
    {"binder": "B9", "values": [
      {"measurement": "IC50", "setting": "[11]", "result": "< 3", "unit": "nM"}
    ]},
    {"binder": "B10", "values": [
      {"measurement": "IC50", "setting": "[12]", "result": "< 3", "unit": "nM"}
    ]},
    {"binder": "B11", "values": [
      {"measurement": "IC50", "setting": "[13]", "result": "< 3", "unit": "nM"}
    ]},
    {"binder": "B12", "values": [
      {"measurement": "IC50", "setting": "[12]", "result": "< 3", "unit": "nM"}
    ]},
    {"binder": "B13", "values": [
      {"measurement": "IC50", "setting": "[13]", "result": 1.8, "unit": "nM"}
    ]}
  ]
}
